The target of this data set is Flag-KRAS.

This note sets out measurements from US20170291958.

B1: Flag-PIASγ (protein)
chain: MAAELVEAKNMVMSFRVSDLQMLLGFVGRSKSGLKHELVTRALQLVQFDCSPELFKKIKELYETRYAKKNSEPAPQPHRPLDPLTMHSTYDRAGAVPRTPLAGPNIDYPVLYGKYLNGLGRLPAKTLKPEVRLVKLPFFNMLDELLKPTELVPQNNEKLQESPCIFALTPRQVELIRNSRELQPGVKAVQVVLRICYSDTSCPQEDQYPPNIAVKVNHSYCSVPGYYPSNKPGVEPKRPCRPINLTHLMYLSSATNRITVTWGNYGKSYSVALYLVRQLTSSELLQRLKTIGVKHPELCKALVKEKLRLDPDSEIATTGVRVSLICPLVKMRLSVPCRAETCAHLQCFDAVFYLQMNEKKPTWMCPVCDKPAPYDQLIIDGLLSKILSECEDADEIEYLVDGSWCPIRAEKERSCSPQGAILVLGPSDANGLLPAPSVNGSGALGSTGGGGPVGSMENGKPGADVVDLTLDSSSSSEDEEEEEEEEEDEDEEGPRPKRRCPFQKGLVPAC
On to B1, for which the “KRAS sumoylation (HA-SUMO3 blot of Flag immunoprecipitates)” value was “Expression of PIASγ enhanced KRAS sumoylation, which was further stimulated by expression of UBC9 (FIG. 3D)”.
